The record followed here is patent EP1032654B1, “THERMOSTABLE GLUCOAMYLASE” (Novozymes A/S, priority 1997, dated 1999).

Assay in all cases: Kinetic parameters for hydrolysis of maltose and isomaltose
Conditions in all cases: other: At 45°C using 0.05 M NaOAc, pH 4.5

Substrate in series [1]: OC[C@H]1O[C@H](OC[C@H]2OC(O)[C@H](O)[C@@H](O)[C@@H]2O)[C@H](O)[C@@H](O)[C@@H]1O
Format: biochemical, Talaromyces emersonii. Here is the method:
(§1) 50 microL enzyme diluted in sodium acetate is added,and the activity was determined using the AGU standard method described above. The kinetic parameters: Kcat and Km are measured at 45°C by adding 50 microL enzyme diluted in sodium acetate to preheated 750 microL substrate. Aliquots of 100 microL are removed after 0, 3, 6, 9 and 12 minutes and transferred to 100 microL 0.4M Sodium hydroxide to stop the reaction. A blank is included.
(§2) 20 microL is transferred to a Micro titre plates and 200 microL GOD-Perid solution is added. Absorbance is measured at 650 nm after 30 minutes incubation at room temperature. Glucose is used as standard, and the specific activity is calculated as kcat (sec. ^-1)
(§3) Kinetic Parameters for Hydrolysis of Maltose and Isomaltose by Aspergillus niger AMG and the recombinant Talaromyces emersonii AMG expressed in A. niger.

Substrate in series [2]: OC[C@H]1O[C@H](O[C@H]2[C@H](O)[C@@H](O)[C@H](O)O[C@@H]2CO)[C@H](O)[C@@H](O)[C@@H]1O
Format: biochemical, Talaromyces emersonii. Here is the method: as §1, §2, §3

Substrate in series [3]: OC[C@H]1O[C@H](OC[C@H]2OC(O)[C@H](O)[C@@H](O)[C@@H]2O)[C@H](O)[C@@H](O)[C@@H]1O
Format: biochemical, Aspergillus niger. Here is the method: as §1, §2, §3

Substrate in series [4]: OC[C@H]1O[C@H](O[C@H]2[C@H](O)[C@@H](O)[C@H](O)O[C@@H]2CO)[C@H](O)[C@@H](O)[C@@H]1O
Format: biochemical, Aspergillus niger. As for the experimental part:
as §1, §2, §3

B1: recombinant Talaromyces emersonii AMG (glucoamylase) expressed in A. niger, SEQ ID NO: 7 (Rasamsonia emersonii) (protein)
chain: ATGSLDSFLATETPIALQGVLNNIGPNGADVAGASAGIVVASPSRSDPNYFYSWTRDAALTAKYLVDAFIAGNKDLEQTIQQYISAQAKVQTISNPSGDLSTGGLGEPKFNVNETAFTGPWGRPQRDGPALRATALIAYANYLIDNGEASTADEIIWPIVQNDLSYITQYWNSSTFDLWEEVEGSSFFTTAVQHRALVEGNALATRLNHTCSNCVSQAPQVLCFLQSYWTGSYVLANFGGSGRSGKDVNSILGSIHTFDPAGGCDDSTFQPCSARALANHKVVTDSFRSIYAINSGIAEGSAVAVGRYPEDVYQGGNPWYLATAAAAEQLYDAIYQWKKIGSISITDVSLPFFQDIYPSAAVGTYNSGSTTFNDIISAVQTYGDGYLSIVEKYTPSDGSLTEQFSRTDGTPLSASALTWSYASLLTASARRQSVVPASWGESSASSVPAVCSATSATGPYSTATNTVWPSSGSGSSTTTSSAPCTTPTSVAVTFDEIVSTSYGETIYLAGSIPELGNWSTASAIPLRADAYTNSNPLWYVTVNLPPGTSFEYKFFKNQTDGTIVWEDDPNRSYTVPAYCGQTTAILDDSWQ
By Km is commonly meant the substrate concentration at which the rate is half of its maximum. As a reminder, the kcat is the maximal rate divided by the concentration of active sites. For orientation: kcat/Km means the second-order rate constant that governs catalysis at low substrate concentration. For the protein B1, in series [1], the Km is listed as 53.6 mM, the kcat was found to be 2.70 s⁻¹ and the kcat/Km stood at 50 M⁻¹ s⁻¹. Moreover, in series [2], the Km came out at 3.8 mM, the kcat was 30.6 s⁻¹ and the kcat/Km stood at 8100 M⁻¹ s⁻¹.

B2: Aspergillus niger AMG (glucoamylase G1), SEQ ID NO: 9 (Aspergillus niger) (protein)
chain: ATLDSWLSNEATVARTAILNNIGADGAWVSGADSGIVVASPSTDNPDYFYTWTRDSGLVLKTLVDLFRNGDTSLLSTIENYISAQAIVQGISNPSGDLSSGAGLGEPKFNVDETAYTGSWGRPQRDGPALRATAMIGFGQWLLDNGYTSTATDIVWPLVRNDLSYVAQYWNQTGYDLWEEVNGSSFFTIAVQHRALVEGSAFATAVGSSCSWCDSQAPEILCYLQSFWTGSFILANFDSSRSGKDANTLLGSIHTFDPEAACDDSTFQPCSPRALANHKEVVDSFRSIYTLNDGLSDSEAVAVGRYPEDTYYNGNPWFLCTLAAAEQLYDALYQWDKQGSLEVTDVSLDFFKALYSDAATGTYSSSSSTYSSIVDAVKTFADGFVSIVETHAASNGSMSEQYDKSDGEQLSARDLTWSYAALLTANNRRNSVVPASWGETSASSVPGTCAATSAIGTYSSVTVTSWPSIVATGGTTTTATPTGSGSVTSTSKTTATASKTSTSTSSTSCTTPTAVAVTFDLTATTTYGENIYLVGSISQLGDWETSDGIALSADKYTSSDPLWYVTVTLPAGESFEYKFIRIESDDSVEWESDPNREYTVPQACGTSTATVTDTWR
As for B2, in series [3], the Km was found to be 19.8 mM, the turnover number (kcat) turned out to be 0.41 s⁻¹ and the kcat/Km is 21 M⁻¹ s⁻¹. In series [4], the Km was found to be 1.2 mM, the turnover number (kcat) was determined as 10.7 s⁻¹ and the kcat/Km amounted to 8800 M⁻¹ s⁻¹.
